Substrate: O=C(O)[C@H]1NCC[C@@H]1O
Experiment: purified protein
Conditions: pH 8.0 Tris-HCl, 50 °C, 0.15 mM NADH, TlLhpI as coupling enzyme

B1: TlLhpH (Thermococcus litoralis DSM 5473) (protein)
chain: MFKKLENLEKWEPPKDWMVIKTLDTHTAGEPLRIILSGFPEIPGKTILEKRRYLMENLDHLRKALMWEPRGHADMYGAIITEPVSEEADFGVIFMHNEGYSTMCGHATIALGKVAVECGLVEAKEPITEIKMDSPAGLIKIYVKVRDGKVEKVYFHNVPSFVLFKDETINVPGIGEVKYDLAYGGAFYAFVNAEEIGLKCTPEYYRQLIDVGMKIKRAIMSEKEIRHPFEEDLSFLYGTIFIGEPEDENSHSRHVCIFADGEVDRSPTGTGVSARLAILYEKGEIDIGEEITIESIIGTKFTGKVVEETRYGLYRAIIPEVGGNAYIVAKNTFLIDPQDPLKYGFFLR
  Km: 288 µM
  kcat: 28.5 s⁻¹
